This note sets out measurements from publication PMC9467613 (mAbs, 2022).

First the molecules themselves.
B1: A01 (scFv, V domains shown)
VH: EVQLVESGGGVVQPGRSLRLSCAASGFTFSNKAMNWVRQAPGKGLEWVSAISGSGATTYYADSVKGRFTISRDNSKNTLYLQMNSLRAEDTAVYYCARKRWYGMDVWGQGTTVTVSS
VL: SYELTQPPSVSVAPGKTARITCGGNNIGSKSVHWYQQKPGQAPVLVVYDDSDRPSGIPERFSGSNSGNTATLTISRVEAGDEADYYCQVWDRGMIFGTGTKLTVL
B2: A12 (scFv, V domains shown)
VH: B1 VH with S30D, K32R, G53S, A56S, T58M
VL: SYELTQPPSVSVAPGKTARITCGGNNIGSKSVHWYQQKPGQAPVLVVYDDSDRPSGIPERFSGSNSGNTATLTISRVEAGDEADYYCQVWDSRTYVFGTGTKLTVL
B3: A10 (scFv, V domains shown)
VH: B1 VH with N31S, K32R, A33S, S54T, A56Y
VL: B1 VL
B4: parental antibody against B7-H4, scFv-Fc (scFv, V domains shown)
VH: B1 VH with N31S, K32Y, A33S, A56G, T57S
VL: B2 VL
B5: B11 (scFv, V domains shown)
VH: B1 VH with S30T, N31S, K32R, T58A
VL: B1 VL
B6: A09 (scFv, V domains shown)
VH: B1 VH with N31S, K32R, A33S, A56L, T58S
VL: B1 VL
B7: B02 (scFv, V domains shown)
VH: B1 VH with N31S, K32R, A33S, A56S, T58V
VL: B2 VL with S29V, P54S, S55P
B8: A04 (scFv, V domains shown)
VH: B1 VH with N31S, K32R, A33S, A56D
VL: B1 VL
B9: A05 (scFv, V domains shown)
VH: B1 VH with F29Y, N31S, K32R, A56S, T57N, T58A
VL: B1 VL
B10: B04 (scFv, V domains shown)
VH: B1 VH with T28S, N31S, K32R, I51V, A56S, T57G
VL: B1 VL with S29L
B11: B12 (scFv, V domains shown)
VH: B1 VH with N31D, K32R, S54T, T57S
VL: B1 VL
B12: B03 (scFv, V domains shown)
VH: B1 VH with S30G, N31D, K32R, A56S, T57G
VL: B1 VL with S29M
B13: B07 (scFv, V domains shown)
VH: B1 VH with S30G, N31D, K32R
VL: B1 VL
B14: A11 (scFv, V domains shown)
VH: B1 VH with N31S, K32R, A33S, A56S, T58V
VL: B1 VL
B15: B08 (scFv, V domains shown)
VH: B1 VH with N31D, K32R, G53A, T57S, T58R
VL: B1 VL
B16: A07 (scFv, V domains shown)
VH: B1 VH with N31S, K32R, A33S, A56S, T58V
VL: B2 VL
B17: B06 (scFv, V domains shown)
VH: B1 VH
VL: B1 VL with S29V, S31A
B18: A02 (scFv, V domains shown)
VH: B1 VH with S30T, N31S, K32R, G53Y, S54E, A56R, T58Q
VL: B1 VL
B19: B10 (scFv, V domains shown)
VH: B1 VH with N31T, K32R, S54T, A56D
VL: B2 VL with D91G, S92R, R93Y, T94Q, Y95M, V96I
B20: A08 (scFv, V domains shown)
VH: B1 VH with S30G, N31D, K32R, G53S, A56T, T58S
VL: B1 VL
B21: B09 (scFv, V domains shown)
VH: B1 VH with F29Y, N31S, K32R, G53S, A56T
VL: B1 VL
B22: B7-H4 purified monomeric recombinant human protein (natural protein)
chain: LIIGFGISGRHSITVTTVASAGNIGEDGILSCTFEPDIKLSDIVIQWLKEGVLGLVHEFKEGKDELSEQDEMFRGRTAVFADQVIVGNASLRLKNVQLTDAGTYKCYIITSKGKGNANLEYKTGAFSMPEVNVDYNASSETLRCEAPRWFPQPTVVWASQVDQGANFSEVSNTSFELNSENVTMKVVSVLYNVTINNTYSCMIENDIAKATGDIKVTESEIKRRSHLQLLNSKAS

Positions count from the first letter of the chain named.

The target of one test is B7-H4 purified monomeric recombinant human protein (Homo sapiens, UniProt Q7Z7D3). Description: SPR.
As to B1, the Kd stood at 0.224 nM, the koff turned out to be 3.7e-05 s⁻¹ and the kon stood at 170000 M⁻¹ s⁻¹.

With B2, the Kd came out at 0.139 nM, the off-rate constant (koff) stood at 3.2e-05 s⁻¹ and the kon turned out to be 230000 M⁻¹ s⁻¹.

Turning to B3, the Kd came out at 0.103 nM, the koff is 1.4e-05 s⁻¹ and the kon was 140000 M⁻¹ s⁻¹.

Regarding B4, the Kd stood at 7.43 nM, the koff amounted to 0.0033 s⁻¹ and the kon was found to be 450000 M⁻¹ s⁻¹.

For the molecule B5, the Kd worked out at 0.068 nM, the koff turned out to be 1.2e-05 s⁻¹ and the kon worked out at 180000 M⁻¹ s⁻¹.

Regarding B6, the Kd stood at 0.074 nM, the koff stood at 1.1e-05 s⁻¹ and the kon came out at 160000 M⁻¹ s⁻¹.

As for B7, the Kd worked out at 0.059 nM, the koff is 1.1e-05 s⁻¹ and the kon turned out to be 180000 M⁻¹ s⁻¹.

As to B8, the dissociation constant Kd is 0.069 nM, the koff is 2.1e-05 s⁻¹ and the kon is 310000 M⁻¹ s⁻¹.

Turning to B9, the Kd was 0.117 nM, the koff turned out to be 2.2e-05 s⁻¹ and the on-rate (kon) stood at 190000 M⁻¹ s⁻¹.

Turning to B10, the Kd is 0.172 nM, the koff is 2.7e-05 s⁻¹ and the kon is 160000 M⁻¹ s⁻¹.

Take B11: the Kd is 0.084 nM, the koff was 2.8e-05 s⁻¹ and the kon is 340000 M⁻¹ s⁻¹.

B12: the equilibrium dissociation constant (Kd) amounted to 0.07 nM, the koff came out at 2.1e-05 s⁻¹ and the kon worked out at 300000 M⁻¹ s⁻¹.

As for B13, the Kd worked out at 0.054 nM, the off-rate (koff) stood at 1.8e-05 s⁻¹ and the kon is 330000 M⁻¹ s⁻¹.

With B14, the Kd was found to be 0.06 nM, the koff stood at 1.1e-05 s⁻¹ and the kon came to 190000 M⁻¹ s⁻¹.

B15: the Kd amounted to 0.117 nM, the koff is 1.8e-05 s⁻¹ and the kon was found to be 150000 M⁻¹ s⁻¹.

Consider B16, for which the Kd was 0.277 nM, the koff was found to be 4.7e-05 s⁻¹ and the kon was 170000 M⁻¹ s⁻¹.

Take B17: the Kd was determined as 0.097 nM, the koff turned out to be 1.7e-05 s⁻¹ and the on-rate constant (kon) was found to be 170000 M⁻¹ s⁻¹.

With B18, the Kd was 0.039 nM, the koff was determined as 1.1e-05 s⁻¹ and the kon came to 280000 M⁻¹ s⁻¹.

Consider B19, for which the Kd amounted to 0.116 nM, the koff worked out at 2.9e-05 s⁻¹ and the association rate constant (kon) is 260000 M⁻¹ s⁻¹.

Take B20: the Kd was determined as 0.043 nM, the koff stood at 1.3e-05 s⁻¹ and the kon worked out at 310000 M⁻¹ s⁻¹.

For the molecule B21, the Kd is 0.118 nM, the koff turned out to be 2.5e-05 s⁻¹ and the on-rate constant (kon) was determined as 210000 M⁻¹ s⁻¹.

Another test concerns the target G05. Description: SPR.
Molecule B22 yielded a Kd of less than 0.063 nM and a koff of less than 1e-05 s⁻¹.

Another test has as its target B05. The test can be described thus: SPR.
With B22, the Kd is less than 0.068 nM and the koff was less than 1e-05 s⁻¹.

Another test concerns the target A06. Description: SPR.
On to B22, for which the Kd is less than 0.034 nM and the koff is less than 1e-05 s⁻¹.

Another test addresses B01. The test can be described thus: SPR.
Molecule B22 registered a Kd of less than 0.032 nM and an off-rate (koff) of less than 1e-05 s⁻¹.
